From patent publication US20160333110A1 (CHIOME BIOSCIENCE, published 2016) come the findings set out here.

Experiment [1] deals with T1, recombinant protein of the hTROP-2 extracellular region (human, UniProt P09758 27-263).
T1 construct: produced with baculovirus, purified on Ni Sepharose; also called hTROP-2 EC; hTROP-2-EC-His; not shown: C-terminal myc-His tag from pcDNA4/myc-His A
T1 sequence: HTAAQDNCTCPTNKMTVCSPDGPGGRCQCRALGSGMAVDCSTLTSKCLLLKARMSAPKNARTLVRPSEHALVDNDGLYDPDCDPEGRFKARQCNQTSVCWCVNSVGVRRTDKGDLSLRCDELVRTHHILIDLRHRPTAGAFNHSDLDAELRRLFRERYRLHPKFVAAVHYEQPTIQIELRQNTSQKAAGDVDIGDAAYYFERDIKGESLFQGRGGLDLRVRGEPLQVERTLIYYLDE
Kind of experiment: antigen-coated ELISA, plate coated with 0.5 µg/ml hTROP-2 extracellular region. As to the method: Furthermore, antigen affinity was also examined by an ELISA method. ELISA was carried out using an ELISA plate which was coated with the recombinant protein of the hTROP-2 extracellular region as described in Example 3. Specifically, a 96-well plate (BD FALCON) was coated with a 50 μl/well recombinant protein of a hTROP-2 extracellular region that had been diluted with PBS to 0.5 μg/ml (at 4° C. overnight). Thereafter, the resultant was washed with a washing buffer (PBS containing 0.05% Tween 20), and a blocking buffer (PBS containing 2% skim milk and 0.05% Tween 20) was then added thereto (200 μl/well) to block it (at room temperature for 1 hour). The resultant was washed with a washing buffer. […] The obtained dilution samples were each added in an amount of 50 μl/well to the above-described ELISA plate (at room temperature for 2 hours). […] After the mixture had been washed with a washing buffer, a TMB (3,3′,5,5′-tetramethylbenzidine: SIGMA) substrate solution was added (50 μl/well) to the resultant to carry out a color reaction. Then, 1 M sulfuric acid (25 μl/well) was added to the reaction product to terminate the reaction. Using Microplate reader Model 550 (BioRad), an absorbance at 450 nm was measured with an absorbance at 655 nm used as a reference.
On the technique in general: In an ELISA, binding on a coated surface is turned into a signal by an enzyme label.

Experiment [2] has as its target T2, human TROP-2 (hTROP-2) endogenously expressed on the cell surface of human cancer cell lines (human, UniProt P09758 27-323).
T2 construct: also called TACSTD2; PK-59 cells
T2 sequence: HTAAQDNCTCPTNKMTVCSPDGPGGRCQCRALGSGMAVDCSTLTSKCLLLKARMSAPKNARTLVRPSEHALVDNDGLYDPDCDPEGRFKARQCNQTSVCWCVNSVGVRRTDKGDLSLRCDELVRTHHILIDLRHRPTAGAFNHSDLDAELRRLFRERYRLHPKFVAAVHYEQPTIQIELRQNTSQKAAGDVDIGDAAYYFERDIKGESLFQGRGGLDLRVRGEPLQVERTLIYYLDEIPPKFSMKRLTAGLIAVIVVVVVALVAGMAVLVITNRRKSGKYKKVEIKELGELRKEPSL
Kind of experiment: FACS on PK-59 cells, 0.1 µg antibody. As to the method:
(§1) Cancer cells were removed from a culture dish by a trypsin treatment, and a cell suspension was then prepared (cell density: 2×10⁶ cells/mL). An anti-hTROP-2 monoclonal antibody (0.1 μg) was added to 100 μL of the cell suspension, and they were then reacted at 4° C. for 20 minutes. The reaction solution was washed with PBS, and it was then reacted with PE-labeled anti-mouse IgG (BD Biosciences Pharmingen) (0.1 μg) (at 4° C. for 30 minutes). Thereafter, the resultant was analyzed by FACSCalibur (Becton, Dickinson and Company).
(§2) Subsequently, the reactivity of the generated anti-hTROP-2 monoclonal antibodies with human cancer cell lines (in which an hTROP-2 protein was endogenously expressed on the cell surface) was examined by FACS analysis.

In experiment [3] the target is T3, mouse TROP-2 protein transiently expressed in CHO-K1 cells (mouse, UniProt Q8BGV3 25-317).
T3 construct: whole, on cells
T3 sequence (looked up): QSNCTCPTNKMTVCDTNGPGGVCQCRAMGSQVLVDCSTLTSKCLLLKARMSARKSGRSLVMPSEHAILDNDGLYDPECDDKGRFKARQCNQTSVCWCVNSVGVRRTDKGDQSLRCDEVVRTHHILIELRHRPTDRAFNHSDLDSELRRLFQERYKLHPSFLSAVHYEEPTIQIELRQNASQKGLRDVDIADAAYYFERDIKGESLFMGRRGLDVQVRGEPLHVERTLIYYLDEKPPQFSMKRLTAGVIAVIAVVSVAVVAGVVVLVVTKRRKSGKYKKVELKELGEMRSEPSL
Kind of experiment: FACS on CHO-K1 cells transiently expressing mouse TROP-2. The source says:
(§3) Specifically, each of an expression vector (mouse TROP-2-pcDNA3.1(+), furnished by the Institute of Molecular and Cellular Biosciences, the University of Tokyo) comprising the full-length cDNA of a mouse TROP-2 gene (GenBank accession No. NM_020047, Y08830), and an expression vector (pcDNA3.1-hEpCAM-myc/His) comprising the full-length cDNA of a human TROP-1/EpCAM gene (GenBank accession No. NM_002354), was transiently introduced into CHO-K1 cells, using Lipofectamine2000 reagent (Invitrogen). Thereafter, 24 to 48 hours later, the cells were removed from a culture dish by treating them with trypsin, and a cell suspension was then prepared. The thus prepared cell suspension was successively reacted with the produced anti-hTROP-2 monoclonal antibody (0.1 μg) and with PE-labeled anti-mouse IgG, and it was then analyzed by FACSCalibur.

Experiment [4] deals with T4, human TROP-1/EpCAM protein transiently expressed in CHO-K1 cells (human, UniProt P16422 24-314).
T4 construct: whole, on cells; also called human EpCAM/TROP-1; hEpCAM; not shown: C-terminal myc/His tag from pcDNA3.1-hEpCAM-myc/His
T4 sequence (looked up): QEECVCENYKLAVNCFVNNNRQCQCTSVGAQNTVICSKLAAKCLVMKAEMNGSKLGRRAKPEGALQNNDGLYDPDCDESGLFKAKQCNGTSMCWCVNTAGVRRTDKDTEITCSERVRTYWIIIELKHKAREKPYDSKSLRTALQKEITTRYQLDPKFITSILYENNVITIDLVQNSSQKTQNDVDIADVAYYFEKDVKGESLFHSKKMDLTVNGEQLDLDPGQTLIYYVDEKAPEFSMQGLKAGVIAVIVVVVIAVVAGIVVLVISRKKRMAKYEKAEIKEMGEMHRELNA
The experiment is described as follows: FACS on CHO-K1 cells transiently expressing human EpCAM/TROP-1.
Description: as §3

Experiment [5] concerns the target T2, human TROP-2 (hTROP-2) endogenously …. Kind of experiment: FACS on BxPC-3 cells, 0.1 µg antibody. As to the method: as §1, §2

B1: anti-hTROP-2 monoclonal antibody clone T6-16 (antibody, mouse IgG2a, V domains shown)
VH: EVQLQQSGPELVKPGASVKISCKASGYTFTDYNMHWVKQSHGKNLEWIGYIYPYNGGTGYNQRFKSRATMTVDKSSSTAYMELRSLTSDDSAVYYCAREDYGSSPSYAMDYWGQGTSVIVSS
VL: DVVMTQTPLSLPVSLGDQASISCRSSQSLVHGNGNTYLHWYLQKPGQSPKLLIYKVSNRFSGVPDRFSGSGSGTDFTLKISRVEAEDLGVYFCSQTTHVPTFGSGTKLEIK
notes: mouse IgG2a, hybridoma FERM BP-11346; also called T6-16 antibody
For orientation: EC50 means the concentration giving half of the maximal effect. On to B1, for which, in experiment [1], the EC50 turned out to be 0.03 µg/mL. The results for the “mean fluorescence intensity, times that with PE-labeled anti-mouse IgG alone” value in experiment [2] and in experiment [5] were 59 times and 25 times, respectively. The binding result in experiment [3] and in experiment [4] was “no binding (tested: 0.1 µg antibody)” throughout.

B2: anti-hTROP-2 monoclonal antibody clone K5-70 (antibody, mouse IgG2a, V domains shown)
VH: QVQLQQPGAELVRPGASVKLSCKASGYTFTIYWINWVKQRPGQGLEWIGNIYPSDSYTNYNQKFKDKATLTVDKSSSTAYMQLSSPTSEDSAVYYCTRTSMADYWGQGTTLTVSS
VL: DILLTQSPAILSVSPGERVSFSCRASQSIGTSIHWYQQRTNGSPRLLIKYASESISGIPSRFSGSGSGTDFTLSINSVESEDIADYYCQQSNSWPFTFGSGTKLEIK
notes: mouse IgG2a, hybridoma FERM BP-11251; also called K5-70 antibody; mouse K5-70 antibody
For the molecule B2, the 50% effective concentration (EC50) in experiment [1] came out at 0.027 µg/mL. Besides, the entries for the “mean fluorescence intensity, times that with PE-labeled anti-mouse IgG alone” value in experiment [2] and in experiment [5] were 44 times and 45 times, respectively. Also, the binding result in experiment [3] and in experiment [4] was “no binding (tested: 0.1 µg antibody)” in each case.
